Numbering of substitutions follows the chain as printed.
Experiments:
[1] = biological target: T1, recombinant mouse Notch2 (EGF10-15) (mouse, UniProt O35516 375-605); test: Biacore SPR
T1 construct: domain: EGF10-15; also called mNotch2; m-Notch2
T1 sequence (looked up): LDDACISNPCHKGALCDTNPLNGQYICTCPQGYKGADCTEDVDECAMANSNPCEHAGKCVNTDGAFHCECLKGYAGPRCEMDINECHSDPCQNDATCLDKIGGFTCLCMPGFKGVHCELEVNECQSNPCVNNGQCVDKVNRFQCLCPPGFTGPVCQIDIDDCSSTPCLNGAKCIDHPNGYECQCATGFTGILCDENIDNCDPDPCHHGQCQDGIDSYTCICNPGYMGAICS

[2] = biological target: T2, recombinant mouse Notch3 (EGF9-14) (mouse, UniProt Q61982 352-581); test: Biacore SPR
T2 construct: domain: EGF9-14; also called mNotch3; m-Notch3
T2 sequence (looked up): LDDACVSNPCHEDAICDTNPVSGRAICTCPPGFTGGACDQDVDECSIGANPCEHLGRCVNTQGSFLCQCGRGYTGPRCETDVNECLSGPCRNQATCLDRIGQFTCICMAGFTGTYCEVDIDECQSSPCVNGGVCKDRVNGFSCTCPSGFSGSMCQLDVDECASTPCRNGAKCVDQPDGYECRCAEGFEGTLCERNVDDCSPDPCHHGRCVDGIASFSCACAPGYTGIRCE

[3] = biological target: T3, recombinant human Notch3 (EGF9-14) (human, UniProt Q9UM47 351-580); test: Biacore SPR
T3 construct: The whole entry for hNotch3 is named here; also called hNotch3; h-Notch3
T3 sequence: T2 sequence (looked up) with S22N, M153T, E193D, I227T

[4] = biological target: T4, human Notch2 as used in the Biacore analysis of Table 6 (construct not stated) (human, UniProt Q04721 375-605, limits assumed); test: Biacore SPR
T4 construct: also called h-Notch2
T4 sequence: T1 sequence (looked up) with V121I, I191V, D194E

[5] = biological target: T5, hNotch2 H385N AL 388-89 SN mutant, full length, on transfected cells (human, UniProt Q04721 26-2471); test: FACS on transfected cells
T5 construct: also called mutant hNotch2 in which certain EGF10 residues have been mutated to hNotch1 residues
Procedure: A comparison analysis of the EGF10 regions of human Notch1, Notch2, and Notch4 and the EGF9 region of human Notch3 (the equivalent of EGF10 in the other Notch receptors) was performed to determine likely binding sites for 59R1 (FIG. 14A). As a result of the analysis, several point mutants were created within full-length Notch2, converting residues within EGF10 to the corresponding amino acids in human Notch 1. Also, conversely, point mutations were made in hNotch1 EGF10 converting residues to the corresponding hN2 residues. Mutants in full-length Notch sequences were generated by QuikChange® mutagenesis (Stratagene) and verified by sequencing. Binding to the mutants was determined by FACS analysis (FIGS. 14B and 14C). 59R1 was detected by PE-conjugated goat anti-human Fc gamma specific antibody (Jackson Immunochemicals, #109-116-170). […] The corresponding residues in hNotch3 are histidine 361, alanine 364, and isoleucine 365.

[6] = biological target: T6, mutant hNotch2 missing amino acids 375-412 (EGF repeat 10 deleted), on transfected cells (human, UniProt Q04721 26-2471); test: FACS on HEK-293 cells transiently transfected with human Notch2 Δaa 375-412 (EGF 10) and GFP
T6 construct: also called hNotch2 in the absence of EGF10
Procedure: FACS analysis of HEK-293 cells transiently transfected with the indicated Notch expression plasmid and GFP as a transfection control. GFP positive cells indicate expression of the transgene. Anti-Notch2 (59M70) was added at 20 μg/ml and detected by PE-conjugated goat anti-mouse (Caltag, #3004-4). 59R1 (IgG2) was added to the cells at 2 μg/ml and detected by PE-conjugated goat anti-human Fc gamma specific (Jackson Immunochemicals). Ligand binding was determined by incubation of the cells with human DLL4 extracellular domain (ECD) fused to rabbit IgG constant region at 5 μg/ml and detected by PE-conjugated donkey anti-rabbit.

[7] = biological target: T7, recombinant human Notch1 (EGF10-15) (human, UniProt P46531 372-601); test: Biacore 2000 SPR; Notch protein amine-coupled to CM5 chip, antibody 1-100 nM injected; Table 3: Biacore 2000, hNotch1 EGF10-15 on CM5 chip, antibody 1-100 nM; fitted KD
T7 construct: The whole entry for hNotch1 is named here; also called hNotch1; h-Notch1
Procedure: The affinities for human and mouse Notch1, Notch2, Notch3, and Notch4 were determined using a Biacore 2000 instrument. Briefly, recombinant human and mouse Notch proteins (EGF10-15 for Notch1, 2, & 4; EGF9-14 for Notch3) were immobilized on a CM5 chip using standard amine based chemistry (NHS/EDC). For hNotch2. EGF1-12 was also tested for binding. Different antibody concentrations (1-100 nM) were injected over the protein surfaces and kinetic data were collected over time. The data was fit using the simultaneous global fit equation to yield dissociation constants (KD, nM) for each Notch (Table 3).

T5 sequence (Q04721 26-2471 H385N/A388S/L389N limits assumed): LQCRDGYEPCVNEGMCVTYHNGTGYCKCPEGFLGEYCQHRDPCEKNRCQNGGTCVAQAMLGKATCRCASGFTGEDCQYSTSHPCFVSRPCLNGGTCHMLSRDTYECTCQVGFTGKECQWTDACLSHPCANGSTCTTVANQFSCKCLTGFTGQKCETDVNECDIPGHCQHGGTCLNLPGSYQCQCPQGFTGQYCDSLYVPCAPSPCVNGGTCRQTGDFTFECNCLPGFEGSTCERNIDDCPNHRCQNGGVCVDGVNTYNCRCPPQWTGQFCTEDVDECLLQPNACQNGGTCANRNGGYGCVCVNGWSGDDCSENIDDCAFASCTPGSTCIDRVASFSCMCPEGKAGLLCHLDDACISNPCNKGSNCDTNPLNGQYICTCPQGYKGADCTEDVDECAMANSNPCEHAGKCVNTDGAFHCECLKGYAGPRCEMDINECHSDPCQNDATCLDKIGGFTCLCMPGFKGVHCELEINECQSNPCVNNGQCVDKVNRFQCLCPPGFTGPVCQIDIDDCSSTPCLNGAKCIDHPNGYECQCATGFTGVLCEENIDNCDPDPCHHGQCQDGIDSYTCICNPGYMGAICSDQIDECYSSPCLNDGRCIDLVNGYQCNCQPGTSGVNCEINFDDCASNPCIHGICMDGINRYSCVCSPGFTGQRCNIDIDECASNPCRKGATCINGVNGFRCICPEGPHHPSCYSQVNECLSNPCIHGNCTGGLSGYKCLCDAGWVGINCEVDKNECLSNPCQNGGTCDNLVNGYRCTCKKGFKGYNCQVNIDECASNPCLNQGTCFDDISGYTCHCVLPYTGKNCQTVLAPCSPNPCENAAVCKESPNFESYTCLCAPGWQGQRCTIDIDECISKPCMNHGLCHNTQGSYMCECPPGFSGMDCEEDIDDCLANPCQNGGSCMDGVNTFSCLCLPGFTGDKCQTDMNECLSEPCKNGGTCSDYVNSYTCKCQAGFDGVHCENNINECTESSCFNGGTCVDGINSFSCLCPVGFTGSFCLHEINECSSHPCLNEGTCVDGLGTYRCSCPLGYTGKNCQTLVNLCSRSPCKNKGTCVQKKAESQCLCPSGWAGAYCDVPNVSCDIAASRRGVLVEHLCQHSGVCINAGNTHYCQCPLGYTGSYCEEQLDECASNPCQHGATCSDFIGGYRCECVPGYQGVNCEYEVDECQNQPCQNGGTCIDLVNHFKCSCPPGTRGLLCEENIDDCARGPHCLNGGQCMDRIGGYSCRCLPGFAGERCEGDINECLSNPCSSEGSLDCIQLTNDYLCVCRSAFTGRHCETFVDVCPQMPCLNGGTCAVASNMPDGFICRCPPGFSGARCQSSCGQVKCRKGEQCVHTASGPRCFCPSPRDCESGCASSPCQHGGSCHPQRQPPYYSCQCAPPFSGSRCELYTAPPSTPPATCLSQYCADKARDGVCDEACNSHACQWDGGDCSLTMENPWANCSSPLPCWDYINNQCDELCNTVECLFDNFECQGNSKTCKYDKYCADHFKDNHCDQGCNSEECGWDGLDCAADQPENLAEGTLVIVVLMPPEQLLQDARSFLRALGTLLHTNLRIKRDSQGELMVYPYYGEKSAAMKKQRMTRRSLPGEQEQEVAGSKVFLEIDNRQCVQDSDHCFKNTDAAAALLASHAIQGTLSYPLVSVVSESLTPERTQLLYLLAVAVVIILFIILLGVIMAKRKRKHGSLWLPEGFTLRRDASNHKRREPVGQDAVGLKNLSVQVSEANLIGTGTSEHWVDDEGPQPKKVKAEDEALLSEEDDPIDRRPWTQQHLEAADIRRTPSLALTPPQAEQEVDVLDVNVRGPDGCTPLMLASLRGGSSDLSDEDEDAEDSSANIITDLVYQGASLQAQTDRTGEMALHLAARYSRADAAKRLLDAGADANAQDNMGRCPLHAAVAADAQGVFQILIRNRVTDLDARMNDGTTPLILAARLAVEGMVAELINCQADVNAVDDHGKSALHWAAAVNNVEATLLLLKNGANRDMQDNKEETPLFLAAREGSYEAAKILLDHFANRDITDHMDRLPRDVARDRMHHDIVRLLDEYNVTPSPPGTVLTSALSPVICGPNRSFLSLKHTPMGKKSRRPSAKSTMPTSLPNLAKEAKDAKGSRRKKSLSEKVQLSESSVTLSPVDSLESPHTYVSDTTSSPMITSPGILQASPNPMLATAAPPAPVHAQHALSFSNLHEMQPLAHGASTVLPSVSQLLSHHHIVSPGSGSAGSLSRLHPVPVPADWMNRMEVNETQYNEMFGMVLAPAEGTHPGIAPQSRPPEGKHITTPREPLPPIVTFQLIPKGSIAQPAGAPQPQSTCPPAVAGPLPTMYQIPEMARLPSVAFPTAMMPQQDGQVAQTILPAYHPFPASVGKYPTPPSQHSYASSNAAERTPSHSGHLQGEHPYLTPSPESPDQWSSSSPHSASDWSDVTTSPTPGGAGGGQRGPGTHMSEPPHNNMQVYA

B1: 59R1 IgG2 antibody (antibody, V domains shown)
VH: QVQLVESGGGLVQPGGSLRLSCAASGFTFSSSGMSWVRQAPGKGLEWVSVIASSGSNTYYADSVKGRFTISRDNSKNTLYLQMNSLRAEDTAVYYCARGIFFAIWGQGTLVTVSS
VL: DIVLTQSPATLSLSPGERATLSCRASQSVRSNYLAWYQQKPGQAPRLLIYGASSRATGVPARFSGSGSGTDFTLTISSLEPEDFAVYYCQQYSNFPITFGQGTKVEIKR
notes: Human IgG2/kappa made in CHO cells; also called anti-Notch2/3 antibody 59R1
Kd [1]: 0.65 nM | Kd [2]: 0.32 nM | Kd [3]: 0.19 nM | Kd [4]: 0.05 nM | binding result [5]: no binding | binding result [6]: no binding (tested: 2 ug/ml) | Kd [7]: 86.4 nM

From US20130260455A1 (ONCOMED PHARMACEUTICALS, published 2013)
